In paper PMC9960064 (The Journal of Cell Biology, 2023):
Residue numbers refer to the chain shown, from its start. In names and notes the source's numbering stands. Several values for one entry are separate records, joined by “and”; a condition that tells them apart may be missing. Identical values can stand only once. Values belong to the binder of their own block, whether it stands above or below them.

What was measured:
[1] = target: T1, untagged β′-COP residues 1–604 (yeast (S. cerevisiae), UniProt P41811 1-604); experiment: ITC
T1 sequence (looked up): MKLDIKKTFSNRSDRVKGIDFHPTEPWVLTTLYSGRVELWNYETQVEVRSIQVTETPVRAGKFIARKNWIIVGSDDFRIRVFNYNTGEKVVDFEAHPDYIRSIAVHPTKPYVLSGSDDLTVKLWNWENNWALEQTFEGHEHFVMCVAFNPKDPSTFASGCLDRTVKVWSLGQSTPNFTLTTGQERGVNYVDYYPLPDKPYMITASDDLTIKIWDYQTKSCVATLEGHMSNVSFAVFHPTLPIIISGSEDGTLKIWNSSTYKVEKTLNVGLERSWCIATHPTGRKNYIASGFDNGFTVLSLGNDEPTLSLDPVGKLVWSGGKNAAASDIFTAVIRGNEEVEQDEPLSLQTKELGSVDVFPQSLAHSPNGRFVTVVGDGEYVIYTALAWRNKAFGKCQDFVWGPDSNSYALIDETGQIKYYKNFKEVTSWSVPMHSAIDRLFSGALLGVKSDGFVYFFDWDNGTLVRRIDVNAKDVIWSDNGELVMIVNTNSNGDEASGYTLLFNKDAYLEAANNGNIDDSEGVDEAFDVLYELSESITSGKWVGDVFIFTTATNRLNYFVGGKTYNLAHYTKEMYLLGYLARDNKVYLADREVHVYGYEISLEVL

[2] = target: T2, mutant β′-COP (D437A/D450A), residues 1–604, untagged (yeast (S. cerevisiae), UniProt P41811 1-604, D437A | D450A); experiment: ITC
T2 sequence (looked up): T1 sequence (looked up) with D437A, D450A

[3] = target: T3, β′-COP D98A/D117A, residues 1–604, untagged (yeast (S. cerevisiae), UniProt P41811 1-604, D98A | D117A); experiment: ITC
T3 sequence (looked up): T1 sequence (looked up) with D98A, D117A

β′604-H6 = target: T4, β′604-H6 (yeast (S. cerevisiae), UniProt P41811 1-604); experiment: pull-down
T4 sequence (looked up): T1 sequence (looked up)

[4] = target: T5, β′-COP residues 1–604 with a C-terminal GST tag (yeast (S. cerevisiae), UniProt P41811 1-604); experiment: pull-down
T5 sequence (looked up): T1 sequence (looked up)

[5] = target: T6, N-terminal β′-COP propeller (residues 1–304), untagged (yeast (S. cerevisiae), UniProt P41811 1-304); experiment: ITC
T6 sequence (looked up): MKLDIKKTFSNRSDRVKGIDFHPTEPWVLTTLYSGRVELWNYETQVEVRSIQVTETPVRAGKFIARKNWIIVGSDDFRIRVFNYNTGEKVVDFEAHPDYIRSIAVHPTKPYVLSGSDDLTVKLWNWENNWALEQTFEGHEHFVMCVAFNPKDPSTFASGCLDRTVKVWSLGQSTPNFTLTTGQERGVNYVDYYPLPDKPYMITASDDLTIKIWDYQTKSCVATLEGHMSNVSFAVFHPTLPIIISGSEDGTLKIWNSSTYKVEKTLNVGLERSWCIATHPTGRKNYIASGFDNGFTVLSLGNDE

Binder: SQDKKKHSILSSSRKPTRLTAKKVDKSQAEDLFDQFKKEAQ (domain or fragment, yeast (S. cerevisiae), UniProt P38682 230-270, looked up) [Glo3 residues 230–270, untagged]
binding result [1]: binds

B2: untagged Glo3 residues 230–290 (domain or fragment, yeast (S. cerevisiae), UniProt P38682 230-290, looked up)
chain: SQDKKKHSILSSSRKPTRLTAKKVDKSQAEDLFDQFKKEAQQEKEDEFTNSSSSTKIRQND
Kd [1]: 0.6 µM and 0.8 to 6 µM | stoichiometry N [1]: 1 | Kd [2]: 18 µM | binding result [3]: binds

B4: Glo3 (residues 230–290) K233E/K234E/K235E (domain or fragment, yeast (S. cerevisiae), UniProt P38682 230-290, looked up)
chain: B2 chain with K4E, K5E, K6E
Kd [1]: < 300 µM

B5: Glo3 (residues 230–290) K251E/K252E/K255E (domain or fragment, yeast (S. cerevisiae), UniProt P38682 230-290, looked up)
chain: B2 chain with K22E, K23E, K26E
Kd [1]: ~12 µM

Further lines, results first:

binding result [1]: binds
B1: Glo3 residues 220–290, untagged (domain or fragment, yeast (S. cerevisiae), UniProt P38682 220-290, looked up)
chain: TASRKKPVLNSQDKKKHSILSSSRKPTRLTAKKVDKSQAEDLFDQFKKEAQQEKEDEFTNSSSSTKIRQND

Kd [1]: ~12 µM
B3: Glo3 (residues 230–290) K233E (domain or fragment, yeast (S. cerevisiae), UniProt P38682 230-290, looked up)
chain: B2 chain with K4E

binding result (β′604-H6): binds
B6: GST-BoCCS, Glo3 residues 208–383 (domain or fragment, yeast (S. cerevisiae), UniProt P38682 208-383, looked up)
chain: KTTVTKTRSSILTASRKKPVLNSQDKKKHSILSSSRKPTRLTAKKVDKSQAEDLFDQFKKEAQQEKEDEFTNSSSSTKIRQNDYDSQFMNNSKGNNNNSIDDINTQPDEFNDFLNDTSNSFDTTRKEQQDTLTPKFAKLGFGMTMNDANDLAKQQKESQKIAQGPRYTGRIAERYG

binding result [4]: binds
B7: full-length Glo3-H8 (natural protein)
chain: not shown

Kd [1]: ~1 µM | stoichiometry N [1]: 1 | Kd [5]: < 300 µM
B8: untagged Glo3 BoCCS fragment (residues 230–300) (domain or fragment, yeast (S. cerevisiae), UniProt P38682 230-300, looked up)
chain: SQDKKKHSILSSSRKPTRLTAKKVDKSQAEDLFDQFKKEAQQEKEDEFTNSSSSTKIRQNDYDSQFMNNSK
